These results are taken from the supplement of paper PMC10567573.

To fix the notation:
B1: PPEF2 (parent)
chain: AFKAAALIQRWYRRYVARLEMRRR
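Further: lentivirally expressed fusions sorted by FACS into six bins by GFP to DsRed ratio, PSI derived from sequencing read proportions per bin multiplied by bin number.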

The data set covers variants of B1. The data set can be described thus: protein stability index of a GFP-peptide fusion (GPS, HEK-293T) (PSI 1-6); higher = more stable. To be noted: c terminus: a fixed tail appended.
With AFKAAALIQRWYRRYVARLEMRGR, the protein stability index is 2.61. Consider AFKAAALIQRWYRRYVARLEMRLR, for which the protein stability index amounted to 2.48.

Take AFKAAALIQRWYRRYVARLEMRER: the protein stability index was 2.44. AFKAAALIQRWYRRYVARLEMRMR: the protein stability index stood at 1.94. The figure for AFKAAALIQRWYRRYVAKLEMRRR is 2.54. Turning to AFKAAALIQRWYRRYVANLEMRRR, the protein stability index amounted to 2.71. Consider AFKAAALIQRWYRRYVAGLEMRRR, for which the protein stability index was 1.95.

As to AFKAAALIQRWYRRYVAELEMRRR, the protein stability index came out at 1.96. For the variant AFKAAALIQRWYRRYVACLEMRRR, the protein stability index amounted to 2.25. With AFKAAALIQRWYRRYVAPLEMRRR the figure was 2.09; with AFKAAALIQRWYRRYVAALEMRRR, 2.12.

For the variant AFKAAALIQRWYRRYVAYLEMRRR, the protein stability index came to 3.1.

Take AFKAAALIQRWYRRYVAILEMRRR: the protein stability index amounted to 2.06. Turning to AFKAAALIQRWYRRYVADLEMRRR, the protein stability index came out at 1.66. As to AFKAAALIQRWYRRYVATLEMRRR, the protein stability index worked out at 2.41. Regarding AFKAAALIQRWYRRYVAFLEMRRR, the protein stability index came out at 3.27.

Turning to AFKAAALIQRWYRRYVAMLEMRRR, the protein stability index was 1.45. Turning to AFKAAALIQRWYRRYVAWLEMRRR, the protein stability index is 2.77. Consider AFKAAALIQRWYRRYVARLFMRRR, for which the protein stability index was 3.06. Regarding AFKAAALIQRWYRRYVARLSMRRR, the protein stability index worked out at 3.65. With AFKAAALIQRWYRRYVARLLMRRR the figure was 2.69. The figure for AFKAAALIQRWYRRYVARLNMRRR is 4.16; for AFKAAALIQRWYRRYVARLYMRRR it is 3.25.

As to AFKAAALIQRWYRRYVARLWMRRR, the protein stability index was 4.21.

For the variant AFKAAALIQRWYRRYVARLVMRRR, the protein stability index is 2.32. As to AFKAAALIQRWYRRYVARLIMRRR, the protein stability index amounted to 2.63.

Take AFKAAALIQRWYRRYVARLHMRRR: the protein stability index is 3.46.

AFKAAALIQRWYRRYVARLMMRRR: the protein stability index turned out to be 2.39.

As for AFKAAALIQRWYRRYVARLGMRRR, the protein stability index was 3.31. The figure for AFKAAALIQRWYRRYVARLPMRRR is 3.41; for AFKAAALIQRWYRRYVARLDMRRR it is 3.02. On to AFKAAALIQRWYRRYVARLTMRRR, for which the protein stability index came to 2.65. Consider AFKAAALIQRWYRRYVARLQMRRR, for which the protein stability index came to 4.2. On to AFKAAALIQRWNRRYVARLEMRRR, for which the protein stability index was found to be 1.62.

AFKAAALIQRWPRRYVARLEMRRR: the protein stability index was determined as 2.44. With AFKAAALIQRWFRRYVARLEMRRR, the protein stability index came to 3.17. As for AFKAAALIQRWTRRYVARLEMRRR, the protein stability index was 2.17. With AFKAAALIQRWGRRYVARLEMRRR, the protein stability index amounted to 1.49. On to AFKAAALIQRWMRRYVARLEMRRR, for which the protein stability index amounted to 2.95. Regarding AFKAAALIQRWIRRYVARLEMRRR, the protein stability index is 2.53. For the variant AFKAAALIQRWRRRYVARLEMRRR, the protein stability index turned out to be 1.15. Turning to AFKAAALIQRWKRRYVARLEMRRR, the protein stability index came to 1.78.

As for AFKAAALIQRWVRRYVARLEMRRR, the protein stability index was found to be 2.07.

For the variant AFKAAALIQRWHRRYVARLEMRRR, the protein stability index came to 2.29.

Turning to AFKAAALIQRWYRRYVARLESRRR, the protein stability index is 2.11. Take AFKAAALIQRWYRRYVARLEHRRR: the protein stability index is 3.83. With AFKAAALIQRWYRRYVARLEQRRR, the protein stability index came out at 4.15. Regarding AFKAAALIQRWYRRYVARLEYRRR, the protein stability index was found to be 3.42. Turning to AFKAAALIQRWYRRYVARLEARRR, the protein stability index is 2.44. Consider AFKAAALIQRWYRRYVARLEIRRR, for which the protein stability index worked out at 3.54. As for AFKAAALIQRWYRRYVARLEDRRR, the protein stability index turned out to be 2.98.

For the variant AFKAAALIQRWYRRYVARLEKRRR, the protein stability index amounted to 2.69. The figure for AFKAAALIQRWYRRYVARLELRRR is 3.39; for AFKAAALIQRWYRRYVARLEFRRR it is 3.32; for AFKAAALIQRWYRRYVARLECRRR it is 3.34. For AFKAAALIQRWYRRYVARLENRRR, the protein stability index is 3.3. AFKAAALIQRWYRRYVARLERRRR: the protein stability index stood at 2.36.

As to AFKAAALIQRWYRRYVARLETRRR, the protein stability index was 3.06. The figure for AFKAAALIQRWYRRYVARLEERRR is 4.73; for AFKAAALIQRWYRRYVARLEPRRR it is 2.18.

Consider AFKAAALIQRWYRRYVARLEVRRR, for which the protein stability index is 3.7. With AFKAAALIQRWYRMYVARLEMRRR the figure was 2.2; with AFKAAALIQRWYRVYVARLEMRRR, 1.07.

AFKAAALIQRWYRPYVARLEMRRR: the protein stability index stood at 1.59. Turning to AFKAAALIQRWYRTYVARLEMRRR, the protein stability index came out at 2.49. Turning to AFKAAALIQRWYRDYVARLEMRRR, the protein stability index came to 1.66. Regarding AFKAAALIQRWYRKYVARLEMRRR, the protein stability index was determined as 3. In the case of AFKAAALIQRWYRNYVARLEMRRR, the protein stability index worked out at 2.83. For AFKAAALIQRWYREYVARLEMRRR, the protein stability index worked out at 2.32.

As to AFKAAALIQRWYRYYVARLEMRRR, the protein stability index came to 1.79. AFKAAALIQRWYRFYVARLEMRRR: the protein stability index was 2.29. With AFKAAALIQRWYRAYVARLEMRRR, the protein stability index is 2.17. On to AFKAAALIQRWYRQYVARLEMRRR, for which the protein stability index amounted to 2.74. AFKAAALIQRWYRIYVARLEMRRR: the protein stability index came to 1.84. With AFKAAALIQRWYRLYVARLEMRRR the figure was 1.84; with AFKAAALIQRWYRHYVARLEMRRR, 2.42. As to AFKAAALIQRWYRRYVPRLEMRRR, the protein stability index turned out to be 2.09.

AFKAAALIQRWYRRYVNRLEMRRR: the protein stability index is 3.84.

Consider AFKAAALIQRWYRRYVVRLEMRRR, for which the protein stability index was 3.84.

On to AFKAAALIQRWYRRYVSRLEMRRR, for which the protein stability index worked out at 3.2. With AFKAAALIQRWYRRYVHRLEMRRR the figure was 2.63; with AFKAAALIQRWYRRYVLRLEMRRR, 3.75; with AFKAAALIQRWYRRYVKRLEMRRR, 3.57. The figure for AFKAAALIQRWYRRYVQRLEMRRR is 3.62. As for AFKAAALIQRWYRRYVGRLEMRRR, the protein stability index stood at 3.96. In the case of AFKAAALIQRWYRRYVRRLEMRRR, the protein stability index is 3.67. In the case of AFKAAALIQRWYRRYVTRLEMRRR, the protein stability index turned out to be 3.34. Take AFKAAALIQRWYRRYVERLEMRRR: the protein stability index was 3.13. With AFKAAALIQRWYRRYVCRLEMRRR the figure was 2.53; with AFKAAALIQRWYRRYVWRLEMRRR, 2.66; with AFKAAALIQRWYRRYVDRLEMRRR, 2.33. On to AFKAAALIQRWYRRYVIRLEMRRR, for which the protein stability index was found to be 2.96. With AFKAAALIQRWYRRYVYRLEMRRR the figure was 2.76. In the case of AFKAAALIQRWYRRYVFRLEMRRR, the protein stability index was found to be 2.6.
